Test results published in publication PMC6936867.

Legend:
[1] = biological target: FcγRIIb (UniProt P31994); test: SPR
[2] = biological target: FcγRIIa R131 (UniProt P12318); test: SPR
[3] = biological target: FcγRIIIa F158 (UniProt P08637); test: SPR
[4] = biological target: FcγRIIIa V158; test: SPR
[5] = biological target: FcγRIIa H131 (UniProt P12318); test: SPR
[6] = biological target: CAP256-VRC26.25 IgG3*17 (human); test: SPR; antibodies printed at 200 nM in 25 mM sodium acetate pH 5.0 on an NHS/EDC-activated carboxymethyldextran gold prism (CFM, MX96 array reader); FcγRs injected in PBS + 0.05% Tween 20, 8-part 3-fold dilution series generally starting between 10 and 50 μM, 5 min association, 5 min dissociation; kinetic global analysis for KD

FcγRIIIa F158, sequence (P08637 17-254): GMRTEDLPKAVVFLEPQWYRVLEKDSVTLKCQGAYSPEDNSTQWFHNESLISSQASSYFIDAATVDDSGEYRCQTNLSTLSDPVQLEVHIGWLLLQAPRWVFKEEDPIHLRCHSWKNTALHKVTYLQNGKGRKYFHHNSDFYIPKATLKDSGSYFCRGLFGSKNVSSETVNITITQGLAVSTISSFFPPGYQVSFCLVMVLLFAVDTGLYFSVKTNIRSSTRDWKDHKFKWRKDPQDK
FcγRIIa H131, sequence (P12318 34-317): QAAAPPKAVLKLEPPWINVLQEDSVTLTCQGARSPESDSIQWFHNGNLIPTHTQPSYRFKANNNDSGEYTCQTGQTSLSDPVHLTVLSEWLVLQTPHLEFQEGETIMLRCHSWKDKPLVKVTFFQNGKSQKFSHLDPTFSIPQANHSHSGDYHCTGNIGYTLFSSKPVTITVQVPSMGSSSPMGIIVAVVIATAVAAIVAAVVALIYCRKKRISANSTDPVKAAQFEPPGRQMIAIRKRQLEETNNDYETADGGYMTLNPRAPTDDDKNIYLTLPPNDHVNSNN
FcγRIIb, sequence (P31994 43-310): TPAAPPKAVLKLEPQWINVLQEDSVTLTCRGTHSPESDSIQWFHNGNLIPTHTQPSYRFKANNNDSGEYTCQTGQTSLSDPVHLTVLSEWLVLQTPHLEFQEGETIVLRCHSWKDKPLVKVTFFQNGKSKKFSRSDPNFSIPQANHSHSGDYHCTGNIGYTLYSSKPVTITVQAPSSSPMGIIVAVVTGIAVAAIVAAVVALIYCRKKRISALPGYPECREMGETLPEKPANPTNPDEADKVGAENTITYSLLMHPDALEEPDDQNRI
FcγRIIIa V158, sequence (P08637 17-208 F176V): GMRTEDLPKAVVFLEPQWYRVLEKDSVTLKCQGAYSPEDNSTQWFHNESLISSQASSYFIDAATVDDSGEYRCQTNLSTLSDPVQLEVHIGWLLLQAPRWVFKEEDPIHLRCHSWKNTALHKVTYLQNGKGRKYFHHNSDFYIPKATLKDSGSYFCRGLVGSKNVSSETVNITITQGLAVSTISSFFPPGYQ
FcγRIIa R131, sequence (P12318 34-217 H167R): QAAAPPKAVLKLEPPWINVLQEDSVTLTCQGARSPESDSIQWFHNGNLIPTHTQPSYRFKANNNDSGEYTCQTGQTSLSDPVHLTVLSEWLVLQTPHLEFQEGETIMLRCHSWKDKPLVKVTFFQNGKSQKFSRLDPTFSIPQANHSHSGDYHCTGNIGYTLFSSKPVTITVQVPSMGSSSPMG

In the case of CAP256-VRC26.25 IgG1, the Kd [1] is reported as 6.6 µM, the Kd [2] is reported as 5.7 µM and the Kd [3] is reported as 3.9 µM. It also gave a Kd [4] of 2.4 µM and a Kd [5] of 5.6 µM.

Substance “CAP256-VRC26.29 IgG1 (from UniProt P01857)” has a Kd [1] of 5.4 µM, a Kd [2] of 5.2 µM and a Kd [3] of 4.5 µM. For the same substance, the Kd [4] was 3.6 µM and the Kd [5] was 5.5 µM.

With CAP256-VRC26.25 IgG3*01 the Kd [1] was 4.6 µM, the Kd [2] was 3.9 µM and the Kd [3] was 3.1 µM. The Kd [4] was 2.2 µM and the Kd [5] was 1 µM.

Work on “CAP256-VRC26.29 IgG3*01 (from UniProt P01860)” yielded a Kd [3] of 4.4 µM, a Kd [4] of 2.6 µM and a Kd [5] of 1.3 µM.

FcγRIIIa gave a fold less binding than other variants [6] of 1.7 to 1.9 fold.

For “CAP256-VRC26.29 IgG3*01m (from UniProt P01860)”, the Kd [3] was 3.9 µM, the Kd [4] was 2.7 µM and the Kd [5] was 1.4 µM.

In the case of “CAP256-VRC26.29 IgG3*17 (from UniProt P01860)”, the Kd [1] is reported as 4.1 µM, the Kd [2] is reported as 2.9 µM and the Kd [3] is reported as 4.5 µM. It also gave a Kd [4] of 2.4 µM and a Kd [5] of 1.3 µM.

CAP256-VRC26.25 IgG3*17 gave a Kd [1] of 4.5 µM, a Kd [2] of 2 µM and a Kd [3] of 4.9 µM. It also gave a Kd [4] of 4.1 µM and a Kd [5] of 1 µM.
